Results: the supplement of paper PMC9112550, “Optimization of the antimicrobial peptide Bac7 by deep mutational scanning” (BMC Biology, 2022)

test system: Escherichia coli TOP10; test: shrunken log2 fold change of peptide-encoding DNA abundance (4.5 h post-induction vs induction); higher = less antimicrobial activity (less host growth inhibition); settings: time post-induction: 4.5 h; library: site-saturation at positions 5, 18, 19, 20
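Further: peptides expressed intracellularly from a pBAD plasmid library in pooled LB shake-flask culture, induced with 0.3% L-arabinose, DNA abundance read by NGS, three biological replicates, DESeq2 with apeglm shrinkage.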

Sequence	shrunken log2 fold change
RRIRMRPPRLPRPRPRPIRYPRP	0.0982
RRIRWRPPRLPRPRPRPYPVPRP	3.67
RRIRGRPPRLPRPRPRPHHNPRP	-0.372
RRIRMRPPRLPRPRPRPFKPPRP	-0.119
RRIRGRPPRLPRPRPRPWIRPRP	-0.164
RRIRFRPPRLPRPRPRPNPPPRP	0.544
RRIRYRPPRLPRPRPRPNEHPRP	-0.268
RRIRDRPPRLPRPRPRPAMMPRP	-0.0512
RRIRRRPPRLPRPRPRPVLQPRP	0.0941
RRIRERPPRLPRPRPRPFCQPRP	-0.528
RRIRWRPPRLPRPRPRPYRTPRP	0.00941
RRIRPRPPRLPRPRPRPVVSPRP	-0.0387
RRIRYRPPRLPRPRPRPIFTPRP	-0.212
RRIRGRPPRLPRPRPRPHEVPRP	0.431
RRIRYRPPRLPRPRPRPPRDPRP	0.102
RRIRERPPRLPRPRPRPEACPRP	-0.0166
RRIRYRPPRLPRPRPRPRNQPRP	-0.32
RRIRKRPPRLPRPRPRPYDGPRP	-0.0976
RRIRCRPPRLPRPRPRPYGVPRP	-0.159
RRIRKRPPRLPRPRPRPCDIPRP	-0.0579
RRIRFRPPRLPRPRPRPFESPRP	0.0452
RRIRQRPPRLPRPRPRPDFQPRP	-0.0253
RRIRQRPPRLPRPRPRPHMQPRP	-0.288
RRIRDRPPRLPRPRPRPIHWPRP	-0.18
RRIRERPPRLPRPRPRPHMHPRP	-0.687

Sequence	shrunken log2 fold change
RRIRRRPPRLPRPRPRPKSDPRP	0.441
RRIRYRPPRLPRPRPRPIISPRP	-0.18
RRIRIRPPRLPRPRPRPCIEPRP	-0.112
RRIRDRPPRLPRPRPRPHLAPRP	0.302
RRIRERPPRLPRPRPRPTEMPRP	0.0983
RRIRDRPPRLPRPRPRPNIEPRP	-0.00164
RRIRYRPPRLPRPRPRPKANPRP	-0.512
RRIRVRPPRLPRPRPRPKLFPRP	0.0793
RRIRRRPPRLPRPRPRPDGLPRP	0.771
RRIRPRPPRLPRPRPRPLCEPRP	0.0379
RRIRRRPPRLPRPRPRPNAAPRP	0.794
RRIRERPPRLPRPRPRPCGWPRP	0.154
RRIRVRPPRLPRPRPRPAVCPRP	0.258
RRIRTRPPRLPRPRPRPFRWPRP	0.24
RRIRERPPRLPRPRPRPSPTPRP	0.0865
RRIRIRPPRLPRPRPRPWMGPRP	-0.185
RRIRLRPPRLPRPRPRPPAAPRP	0.771
RRIRYRPPRLPRPRPRPNWDPRP	-0.863
RRIRERPPRLPRPRPRPSTSPRP	-0.145
RRIRPRPPRLPRPRPRPADPPRP	0.558
RRIRKRPPRLPRPRPRPLEVPRP	0.0569
RRIRDRPPRLPRPRPRPHHWPRP	0.172
RRIRFRPPRLPRPRPRPLVIPRP	-0.78
RRIRARPPRLPRPRPRPQFSPRP	0.0761
RRIRARPPRLPRPRPRPALSPRP	0.628

Sequence	shrunken log2 fold change
RRIRNRPPRLPRPRPRPDNRPRP	-0.0135
RRIRVRPPRLPRPRPRPWKSPRP	0.0332
RRIRMRPPRLPRPRPRPLFWPRP	0.554
RRIRWRPPRLPRPRPRPDKWPRP	-0.161
RRIRQRPPRLPRPRPRPRKSPRP	-0.172
RRIRLRPPRLPRPRPRPIFMPRP	-0.414
RRIRVRPPRLPRPRPRPLITPRP	-0.439
RRIRFRPPRLPRPRPRPGCWPRP	0.524
RRIRFRPPRLPRPRPRPEDIPRP	0.0107
RRIRKRPPRLPRPRPRPPVHPRP	0.273
RRIRIRPPRLPRPRPRPNKLPRP	-0.499
RRIRDRPPRLPRPRPRPNEDPRP	0.00355
RRIRVRPPRLPRPRPRPPISPRP	0.0369
RRIRDRPPRLPRPRPRPIVDPRP	-0.000946
RRIRLRPPRLPRPRPRPMQRPRP	0.0784
RRIRIRPPRLPRPRPRPAGIPRP	-0.437
RRIRRRPPRLPRPRPRPQPDPRP	0.317
RRIRYRPPRLPRPRPRPYRPPRP	-0.0134
RRIRSRPPRLPRPRPRPTGAPRP	0.633
RRIRMRPPRLPRPRPRPSFSPRP	-0.176
RRIRRRPPRLPRPRPRPQRKPRP	0.347
RRIRRRPPRLPRPRPRPLFLPRP	-0.173
RRIRWRPPRLPRPRPRPHVFPRP	-0.154
RRIRSRPPRLPRPRPRPAQRPRP	0.105
RRIRRRPPRLPRPRPRPDYQPRP	0.0952
